Measurements from patent US5851983, “Elastase inhibitory polypeptide and process for production thereof by recombinant gene technology” (Teijin Limited, dated 1998).
Where two headings read alike, the source gives them in different places. No end group written: not given here.

T1: Human cathepsin G (EPC Co., Funakoshi Yakuhin) (human, UniProt P08311)
T1 sequence: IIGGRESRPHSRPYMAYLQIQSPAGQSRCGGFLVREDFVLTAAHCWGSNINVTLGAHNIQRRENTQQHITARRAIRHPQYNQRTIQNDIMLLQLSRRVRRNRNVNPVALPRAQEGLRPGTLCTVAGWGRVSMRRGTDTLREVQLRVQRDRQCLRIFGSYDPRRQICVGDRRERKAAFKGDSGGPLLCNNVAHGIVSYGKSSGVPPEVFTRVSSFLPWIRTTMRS


Key:
[1] = molecular target: T2, Bovine spleen trypsin (Sigma) (bovine, UniProt P00760); assay: enzyme inhibition with Bz-Arg-pNA, Ki by the Henderson method
Method: (§1) To wells of an ELISA 96-well microtiter plate, were added 120 μl of the buffer, 20 μl of a sample solution of (Arg^55-Ala^107) SLPI obtained in Example 25, and 20 μl of the enzyme solution in this order, an the mixture was reacted at 37° C. for 1 hour. Next, 20 μl of the substrate was added to develop at 25° C. Absorption of the developed color was measured at 405 nm. As a control, SLPI was used.

[2] = molecular target: T3, Polymorphonuclear leukocyte elastase from human sputum (EPC Co.; Funakoshi Yakuhin) (human, UniProt P08246); assay: enzyme inhibition with MeO-Suc-Ala-Ala-Pro-Val-pNA, Ki by the Henderson method
Method: as §1

[3] = molecular target: T4, Bovine spleen chymotrypsin (Sigma) (bovine, UniProt P00766); assay: cell-based or functional assay
[4] = molecular target: T5, Porcine spleen elastase (Sigma) (porcine, UniProt P00772); assay: cell-based or functional assay
[5] = molecular target: T1, Human cathepsin G (EPC Co., Funakoshi …); assay: cell-based or functional assay
Human plasma thrombin = Human plasma thrombin (human, UniProt P00734); assay: cell-based or functional assay
Human plasma kallikrein = Human plasma kallikrein (human, UniProt P03952); assay: cell-based or functional assay
[6] = molecular target: Calf pancreatic chymotrypsin (Sigma) (calf (bovine), UniProt P00766); assay: cell-based or functional assay
[7] = molecular target: Porcine pancreatic elastase (Sigma) (porcine, UniProt P00772); assay: cell-based or functional assay
Human plasma plasmin = Human plasma plasmin (human, UniProt P00747); assay: cell-based or functional assay
[8] = molecular target: T3, Polymorphonuclear leukocyte elastase …; assay: enzyme inhibition with chromogenic substrate, Ki by the Henderson method
Method: (§2) To each well of a 96-well ELISA microplate were added 140 μl of the above-mentioned buffer, 20 μl of a test solution, and 20 μl of the enzyme solution, and the mixture was stirred at 37° C. for 30 minutes. Next, 20 μl of the substrate solution was added to the well, the mixture was stirred at 37° C. for one hour to develop same, and the absorbance at 405 nm was measured.
(§3) Moreover, an inhibitory constant Ki of the present (Asn^55-Ala^107) SLPI was calculated on the basis of the above data by a method of Dixon, M. and Webb, E. C. (1979), Enzyme, Longman or a method of Henderson, P. J. F. (1972) Biochem. J., 127, 321–333.

[9] = molecular target: T6, Calf pancreatic trypsin (Sigma) (calf (bovine), UniProt P00760); assay: as above
Method: as §2, §3

[10] = molecular target: T3, Polymorphonuclear leukocyte elastase …; assay: enzyme inhibition with chromogenic substrate, Ki by the Dixon method
Method: as §2, §3

[11] = molecular target: T6, Calf pancreatic trypsin (Sigma); assay: as above
Method: as §2, §3

[12] = molecular target: T3, Polymorphonuclear leukocyte elastase …; assay: enzyme inhibition with MeO-Suc-Ala-Ala-Pro-Val-pNA, Ki by the Henderson method; remark: listed apart in the source
[13] = molecular target: T4, Bovine spleen chymotrypsin (Sigma); assay: cell-based or functional assay; remark: listed apart in the source
[14] = molecular target: T5, Porcine spleen elastase (Sigma); assay: cell-based or functional assay; remark: listed apart in the source
[15] = molecular target: T1, Human cathepsin G (EPC Co., Funakoshi …); assay: cell-based or functional assay; remark: listed apart in the source
[16] = molecular target: T1, Human cathepsin G (EPC Co., Funakoshi …); assay: cell-based or functional assay; remark: listed apart in the source
[17] = molecular target: T2, Bovine spleen trypsin (Sigma); assay: enzyme inhibition with Bz-Arg-pNA, Ki by the Henderson method; remark: listed apart in the source
Method: as §1, with “(Arg^59-Ala^107)” for “(Arg^55-Ala^107)”, “23,” for “25,”

[18] = molecular target: T3, Polymorphonuclear leukocyte elastase …; assay: enzyme inhibition; method not described

Row | Ki [1] | Ki [2] | IC50 [3] | IC50 [4] | IC50 [5] | Ki [12] | IC50 [13] | IC50 [14] | IC50 [15] | Ki [17] | Binder | also measured
1 | 1100 nM | 0.09 nM | 6.8 nM | 23000 nM | 8 nM |  |  |  |  |  | RRKPGKCPVTYGQCLMLNPPNFCEMDGQCKRDLKCCMGMCGKSCVSPVKA (other) [(Arg^58 -Ala^107) SLPI] | 
2 |  |  |  |  |  |  |  |  |  |  | (Asn^55 -Ala^107) SLPI fragment polypeptide (other, also: intramolecular disulfides in refolded form, pairing not given here) NPTRRKPGKCPVTYGQCLMLNPPNFCEMDGQCKRDLKCCMGMCGKSCVSPVKA | concentration of inhibitory protein which exhibits a 50% inhibition (Human plasma thrombin): > 2 µM; concentration of inhibitory protein which exhibits a 50% inhibition (Human plasma kallikrein): > 2 µM; concentration of inhibitory protein which exhibits a 50% inhibition [6]: 10 nM; concentration of inhibitory protein which exhibits a 50% inhibition [7]: 200 nM; concentration of inhibitory protein which exhibits a 50% inhibition (Human plasma plasmin): > 2 µM; Ki [8]: 0.2 nM; Ki [9]: 20 nM; Ki [10]: 0.03 nM; Ki [11]: 60 nM
3 |  |  |  |  |  | 0.08 nM | 5.8 nM | 11000 nM | 8 nM | 1100 nM | RKPGKCPVTYGQCLMLNPPNFCEMDGQCKRDLKCCMGMCGKSCVSPVKA (other) [(Arg^59 -Ala^107) SLPI] | IC50 value [16]: 11 nM
4 | 33 nM | 0.08 nM | 7 nM | 13000 nM | 5.5 nM | 0.08 nM | 7 nM | 13000 nM | 5.5 nM | 33 nM | Human secretory leukoprotease inhibitor (SLPI) (other) SGKSFKAGVCPPKKSAQCLRYKKPECQSDWQCPGKKRCCPDTCGIKCLDPVDTPNPTRRKPGKCPVTYGQCLMLNPPNFCEMDGQCKRDLKCCMGMCGKSCVSPVKA | Ki [18]: 0.25 nM
